B1: Autophagy-related protein 13 (Homo sapiens), O75143 (parent)
chain: METDLNSQDRKDLDKFIKFFALKTVQVIVQARLGEKICTRSSSSPTGSDWFNLAIKDIPEVTHEAKKALAGQLPAVGRSMCVEISLKTSEGDSMELEIWCLEMNEKCDKEIKVSYTVYNRLSLLLKSLLAITRVTPAYRLSRKQGHEYVILYRIYFGEVQLSGLGEGFQTVRVGTVGTPVGTITLSCAYRINLAFMSTRQFERTPPIMGIIIDHFVDRPYPSSSPMHPCNYRTAGEDTGVIYPSVEDSQEVCTTSFSTSPPSQLSSSRLSYQPAALGVGSADLAYPVVFAAGLNATHPHQLMVPGKEGGVPLAPNQPVHGTQADQERLATCTPSDRTHCAATPSSSEDTETVSNSSEGRASPHDVLETIFVRKVGAFVNKPINQVTLTSLDIPFAMFAPKNLELEDTDPMVNPPDSPETESPLQGSLHSDGSSGGSSGNTHDDFVMIDFKPAFSKDDILPMDLGTFYREFQNPPQLSSLSIDIGAQSMAEDLDSLPEKLAVHEKNVREFDAFVETLQ

Variants of: B1
Settings: with MAP1LC3A

Effect of a mutation on the interaction, decreasing interaction strength:
METDLNSQDRKDLDKFIKFFALKTVQVIVQARLGEKICTRSSSSPTGSDWFNLAIKDIPEVTHEAKKALAGQLPAVGRSMCVEISLKTSEGDSMELEIWCLEMNEKCDKEIKVSYTVYNRLSLLLKSLLAITRVTPAYRLSRKQGHEYVILYRIYFGEVQLSGLGEGFQTVRVGTVGTPVGTITLSCAYRINLAFMSTRQFERTPPIMGIIIDHFVDRPYPSSSPMHPCNYRTAGEDTGVIYPSVEDSQEVCTTSFSTSPPSQLSSSRLSYQPAALGVGSADLAYPVVFAAGLNATHPHQLMVPGKEGGVPLAPNQPVHGTQADQERLATCTPSDRTHCAATPSSSEDTETVSNSSEGRASPHDVLETIFVRKVGAFVNKPINQVTLTSLDIPFAMFAPKNLELEDTDPMVNPPDSPETESPLQGSLHSDGSSGGSSGNTHDDFAMIDFKPAFSKDDILPMDLGTFYREFQNPPQLSSLSIDIGAQSMAEDLDSLPEKLAVHEKNVREFDAFVETLQ [V445A]
METDLNSQDRKDLDKFIKFFALKTVQVIVQARLGEKICTRSSSSPTGSDWFNLAIKDIPEVTHEAKKALAGQLPAVGRSMCVEISLKTSEGDSMELEIWCLEMNEKCDKEIKVSYTVYNRLSLLLKSLLAITRVTPAYRLSRKQGHEYVILYRIYFGEVQLSGLGEGFQTVRVGTVGTPVGTITLSCAYRINLAFMSTRQFERTPPIMGIIIDHFVDRPYPSSSPMHPCNYRTAGEDTGVIYPSVEDSQEVCTTSFSTSPPSQLSSSRLSYQPAALGVGSADLAYPVVFAAGLNATHPHQLMVPGKEGGVPLAPNQPVHGTQADQERLATCTPSDRTHCAATPSSSEDTETVSNSSEGRASPHDVLETIFVRKVGAFVNKPINQVTLTSLDIPFAMFAPKNLELEDTDPMVNPPDSPETESPLQGSLHSDGSSGGSSGNTHADFVMIDFKPAFSKDDILPMDLGTFYREFQNPPQLSSLSIDIGAQSMAEDLDSLPEKLAVHEKNVREFDAFVETLQ [D442A]
METDLNSQDRKDLDKFIKFFALKTVQVIVQARLGEKICTRSSSSPTGSDWFNLAIKDIPEVTHEAKKALAGQLPAVGRSMCVEISLKTSEGDSMELEIWCLEMNEKCDKEIKVSYTVYNRLSLLLKSLLAITRVTPAYRLSRKQGHEYVILYRIYFGEVQLSGLGEGFQTVRVGTVGTPVGTITLSCAYRINLAFMSTRQFERTPPIMGIIIDHFVDRPYPSSSPMHPCNYRTAGEDTGVIYPSVEDSQEVCTTSFSTSPPSQLSSSRLSYQPAALGVGSADLAYPVVFAAGLNATHPHQLMVPGKEGGVPLAPNQPVHGTQADQERLATCTPSDRTHCAATPSSSEDTETVSNSSEGRASPHDVLETIFVRKVGAFVNKPINQVTLTSLDIPFAMFAPKNLELEDTDPMVNPPDSPETESPLQGSLHSDGSSGGSSGNTHDDAVMIDFKPAFSKDDILPMDLGTFYREFQNPPQLSSLSIDIGAQSMAEDLDSLPEKLAVHEKNVREFDAFVETLQ [F444A]
METDLNSQDRKDLDKFIKFFALKTVQVIVQARLGEKICTRSSSSPTGSDWFNLAIKDIPEVTHEAKKALAGQLPAVGRSMCVEISLKTSEGDSMELEIWCLEMNEKCDKEIKVSYTVYNRLSLLLKSLLAITRVTPAYRLSRKQGHEYVILYRIYFGEVQLSGLGEGFQTVRVGTVGTPVGTITLSCAYRINLAFMSTRQFERTPPIMGIIIDHFVDRPYPSSSPMHPCNYRTAGEDTGVIYPSVEDSQEVCTTSFSTSPPSQLSSSRLSYQPAALGVGSADLAYPVVFAAGLNATHPHQLMVPGKEGGVPLAPNQPVHGTQADQERLATCTPSDRTHCAATPSSSEDTETVSNSSEGRASPHDVLETIFVRKVGAFVNKPINQVTLTSLDIPFAMFAPKNLELEDTDPMVNPPDSPETESPLQGSLHSDGSSGGSSGNTHDAFVMIDFKPAFSKDDILPMDLGTFYREFQNPPQLSSLSIDIGAQSMAEDLDSLPEKLAVHEKNVREFDAFVETLQ [D443A]
METDLNSQDRKDLDKFIKFFALKTVQVIVQARLGEKICTRSSSSPTGSDWFNLAIKDIPEVTHEAKKALAGQLPAVGRSMCVEISLKTSEGDSMELEIWCLEMNEKCDKEIKVSYTVYNRLSLLLKSLLAITRVTPAYRLSRKQGHEYVILYRIYFGEVQLSGLGEGFQTVRVGTVGTPVGTITLSCAYRINLAFMSTRQFERTPPIMGIIIDHFVDRPYPSSSPMHPCNYRTAGEDTGVIYPSVEDSQEVCTTSFSTSPPSQLSSSRLSYQPAALGVGSADLAYPVVFAAGLNATHPHQLMVPGKEGGVPLAPNQPVHGTQADQERLATCTPSDRTHCAATPSSSEDTETVSNSSEGRASPHDVLETIFVRKVGAFVNKPINQVTLTSLDIPFAMFAPKNLELEDTDPMVNPPDSPETESPLQGSLHSDGSSGGSSGNTHDDFVMADFKPAFSKDDILPMDLGTFYREFQNPPQLSSLSIDIGAQSMAEDLDSLPEKLAVHEKNVREFDAFVETLQ [I447A]
METDLNSQDRKDLDKFIKFFALKTVQVIVQARLGEKICTRSSSSPTGSDWFNLAIKDIPEVTHEAKKALAGQLPAVGRSMCVEISLKTSEGDSMELEIWCLEMNEKCDKEIKVSYTVYNRLSLLLKSLLAITRVTPAYRLSRKQGHEYVILYRIYFGEVQLSGLGEGFQTVRVGTVGTPVGTITLSCAYRINLAFMSTRQFERTPPIMGIIIDHFVDRPYPSSSPMHPCNYRTAGEDTGVIYPSVEDSQEVCTTSFSTSPPSQLSSSRLSYQPAALGVGSADLAYPVVFAAGLNATHPHQLMVPGKEGGVPLAPNQPVHGTQADQERLATCTPSDRTHCAATPSSSEDTETVSNSSEGRASPHDVLETIFVRKVGAFVNKPINQVTLTSLDIPFAMFAPKNLELEDTDPMVNPPDSPETESPLQGSLHSDGSSGGSSGNTHDDFVAIDFKPAFSKDDILPMDLGTFYREFQNPPQLSSLSIDIGAQSMAEDLDSLPEKLAVHEKNVREFDAFVETLQ [M446A]

Reference: IntAct's records for PubMed 24290141
